We go through 30 sequences from the nanobody polyreactivity screen of Harvey et al. (2022).

A short description of this series: yeast display, Sf9 membrane polyspecificity reagent, FACS + sequencing; frameworks hold sequencing errors. The procedure, abridged:
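A synthetic nanobody library was expressed on Saccharomyces cerevisiae BJ5465 by galactose induction for 36–48 hours. The library was stained for 1 hour at 4 °C with 10% biotinylated, detergent-solubilized Sf9 membrane reagent and enriched with streptavidin microbeads before FACS. Low and high (top ~1%) gates were set on anti-HA fluorescence for expression and streptavidin fluorescence for reagent binding, and each polyreactivity label reflects the gate of origin.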
Consider “QVQLVESGGGLVQAGGSLRLSCAASGSTFLYYAMGWYRQAPGKEREFVAAISKGSGRTYYADSVKGRFTISRDNAKNTVYLQLNSLKPEDTAVYYCAAAKWRGYPYQSDYWGQGTQVTVSS”, for which the “polyreactivity (PSR sort gate)” value was “high polyreactivity”.

For “QVQLVESGGGLVQAGGSLRLSCAASGSTFLYYAMGWYRQAPGKERQLVAAISGSGGSTYYADSVKGRFTISRDNAKNNVYLQMYSLKPEDTAVYYCNAVARRHGLGPYDYWGQGTQVTVSS”, the “polyreactivity (PSR sort gate)” value was “high polyreactivity”.

Regarding “QVQLVESGGGLVQAGGSLRLSCAASGSTFLYYAMGWYRQEPGKERELVAAINWNGGSTYYADSVKGRFTISRDNAKNTVYLQMNSLKPEDTAVYYCNAYGISPYEYYYWGQGTQVTVSS”, the “polyreactivity (PSR sort gate)” value was “low polyreactivity”.

Regarding “QVQLVESGGGLVQAGGSLRLSCAASGSTFLYYAMGWYTQAPGKERELVAAITVRGGNTYYADSVKGRFTISRDNAKNTVYLQMNSLKPEDTAVYYCAARAYYSFRYDYWGQGTQVTVSS”, the “polyreactivity (PSR sort gate)” value is “high polyreactivity”.

On to “QVQLVESGGGLVQAGGSLRLSCAASGSTFLYYTMGWYRQAPGKERELVAAITGSGTSTYYADSVKGRFTISRDNAKNTVYLQMNSLKPEDTAVYYCAARGHGRLYYWGHGTQVTVSS”, for which the “polyreactivity (PSR sort gate)” value is given as “high polyreactivity”.

Regarding “QVQLVESGGGLVQAGGSLRLSCAASGSTFLYYTMGWYRQAPGKERELVAAITNGGGSTYYADSVKGRFTISRDNAKNTVYLQMNSLKPEDTAVYYCNAPTVKYRLGYDYWGQGTQVTVSS”, the “polyreactivity (PSR sort gate)” value was “high polyreactivity”.

With “QVQLVESGGGLVQAGGSLRLSCAASGSTFLYYTMGWYRQAPGKERELVATISRDGSTKYADSVKGRFTISRDNAKITVYLQMNSLKPEDTAVYYCAAARDSIVYGQYDYWGQGTQVTVSS”, the “polyreactivity (PSR sort gate)” value is on record as “low polyreactivity”.

Consider “QVQLVESGGGLVQAGGSLRLSCAASGSTFNANAMGWYRQAPGKERELVAAITAIGGSTYYADSVTGRFTISRDNAKNTVYLQMNSLKPEDTAVYYCAADFSYVYYLYDYWGQGTQVTVSS”, for which the “polyreactivity (PSR sort gate)” value is recorded as “low polyreactivity”.

Turning to “QVQLVESGGGLVQAGGSLRLSCAASGSTFNDYAMGWYRQAPGKERELVASIRYSGGGTYYADSVKGRFTISRDNAKNTVYLQMNSLKPEDTAVYYCAKDTHLLNEHSGTSREYDYWGQGTQVTVSS”, the “polyreactivity (PSR sort gate)” value was “low polyreactivity”.

Consider “QVQLVESGGGLVQAGGSLRLSCAASGSTFNEYTMGWYRQAPGKERELVAAIRATDGSTYYADSVKGRFTISRDNAKNTVYLQMNSLKPEDTAVYYCAADYYWNDYWGQGTQVTVSS”, for which the “polyreactivity (PSR sort gate)” value was “low polyreactivity”.

Consider “QVQLVESGGGLVQAGGSLRLSCAASGSTFNGYAMGWYRQAPGKERELVAAITSSGSRTYYADSVKGRFTISRDNAKNTVYLQMNSLKPVDTAVYYCNAGKLARTYFRSSSLSPGDYWGQGTQVTVSS”, for which the “polyreactivity (PSR sort gate)” value is reported as “high polyreactivity”.

Turning to “QVQLVESGGGLVQAGGSLRLSCAASGSTFNGYTMGWYRQAPGKEREFVATITFSDGSTYYADSVKGRFTISRDNAKNTVYLQMNSLKPEDTAVYYCNVDSPIGYDYWGQGTQVTVSS”, the “polyreactivity (PSR sort gate)” value is recorded as “low polyreactivity”.

Consider “QVQLVESGGGLVQAGGSLRLSCAASGSTFNINAMGWYRQAPGKERELVADITSGGSTNYADSVKGRFTISRDNAKNTVYLQMNSLKPEDTAVYYCNADVLYGDSYRGGYCGQGTQVTVSS”, for which the “polyreactivity (PSR sort gate)” value is given as “low polyreactivity”.

On to “QVQLVESGGGLVQAGGSLRLSCAASGSTFNKYAMGWYRQAPGKEREFVAAITSSGGRTYYADSVKGRFTISRDNAKNTVYLQMNSLKPEDTAVYYCAARSYTYTAPIYGYWGQGTQVTVSS”, for which the “polyreactivity (PSR sort gate)” value is given as “high polyreactivity”.

For the sequence “QVQLVESGGGLVQAGGSLRLSCAASGSTFNKYTMGWYRQAPGKERELVAAITSGDSTYYADSVKGRFTISRDNAKNTVYLQMNSLKPEDTAVYYCAKSLRAYRHVIYGKPFYSWGQGTQVTVSS”, the “polyreactivity (PSR sort gate)” value is given as “low polyreactivity”.

Take “QVQLVESGGGLVQAGGSLRLSCAASGSTFNLYAMGWYRQAPGKERELVASISRSGVSTYYADSVKGRFTISRDNAKNTVYLQMNSLKPEDTAVYYCAVDKVLYRLYPGMDYWGQGTQVTVSS”: the “polyreactivity (PSR sort gate)” value is given as “low polyreactivity”.

As to “QVQLVESGGGLVQAGGSLRLSCAASGSTFNPYAMGWYRQAPGKERELVAAITWSSDDTYYADSVKGRFTISRDNAKNTVYLQMNSLKPEDTAVYYCAATTVTQWYTITVAYGYWGQGTQVTVSS”, the “polyreactivity (PSR sort gate)” value is reported as “low polyreactivity”.

Consider “QVQLVESGGGLVQAGGSLRLSCAASGSTFNRYAMGWYRQAPGKERELVAAISWSGTRTYYADSVKGRFTISRDNAKNTVYLQMNSLKPEDTAVYYCAARRLYAGHQYDYWGQGTQVTVSS”, for which the “polyreactivity (PSR sort gate)” value is recorded as “high polyreactivity”.

On to “QVQLVESGGGLVQAGGSLRLSCAASGSTFNSNAMGWYRQAPGKERELVAAINYSGGSTYYADSVKGRFTISRDNAKNTVYLQMNSLKPEDTAVYYCNKVYFDHYLSRVYYWGQVTQVTVSS”, for which the “polyreactivity (PSR sort gate)” value is “high polyreactivity”.

Consider “QVQLVESGGGLVQAGGSLRLSCAASGSTFNSYAMGWYRQAPGKESELVAAITSSGSRTRYADSVKGRFTISRDNAKNTVYLQMNSLKPEDTAVYYCAAVYRLKSGGVWRDSQFGYWGQGTQVTVSS”, for which the “polyreactivity (PSR sort gate)” value was “high polyreactivity”.

“QVQLVESGGGLVQAGGSLRLSCAASGSTFNSYTMGWYRPAPGKERELVAAISWRGTSTYYADSVKGRFTISRDNAKNTVYLQMNSLKPEDTAVFYCAAAGRYRVLTGLVSSWKYWGQGTLVTVSS”: the “polyreactivity (PSR sort gate)” value is “high polyreactivity”.

Turning to “QVQLVESGGGLVQAGGSLRLSCAASGSTFNTYAMGWYRQAPGKERELVAAITWRGGRTYYADSVKGRFTISRDNAKNTVYLQMNSLKPEDTAVYYCAARRTYYSRKPRFDYWGQGTQVTVSS”, the “polyreactivity (PSR sort gate)” value is given as “high polyreactivity”.

In the case of “QVQLVESGGGLVQAGGSLRLSCAASGSTFNTYAMGWYRQAPGKERELVAAITWRGGRTYYADSVKGRFTISRDNAKNTVYLQMNSLKPEDTAVYYCNTLRPRLDGVYGYDYWGQGTQVTVSS”, the “polyreactivity (PSR sort gate)” value is listed as “high polyreactivity”.

For “QVQLVESGGGLVQAGGSLRLSCAASGSTFNVNAMGWYRQAPGKERELVAAISSDGITNYADSVKRRFTISRDNAKNTVYLQMNSLKPEDTAVYYCNADWTDGDWADMDYWGQGTQVTVSS”, the “polyreactivity (PSR sort gate)” value is “low polyreactivity”.

As for “QVQLVESGGGLVQAGGSLRLSCAASGSTFNWNAMGWYRQAPGKERELVAAITSSGARTRYADSVKGRFTISRDNAKNTVYLQMNSLKPEDTAVYYCAAYVYISPSGYYYWGQGTQVTVSS”, the “polyreactivity (PSR sort gate)” value is “high polyreactivity”.

As for “QVQLVESGGGLVQAGGSLRLSCAASGSTFNYYAMGWDRQAPGTVRELVAAITRNGGRKYYADSVKGRFRLSRDNAKNTVYLQMNSLKPEETAVYYCATDTYSYRSIHDMGYWGQGTQVTVSS”, the “polyreactivity (PSR sort gate)” value was “high polyreactivity”.

With “QVQLVESGGGLVQAGGSLRLSCAASGSTFNYYAMGWYRQAPGKERELVAAITSSGTSTFYADSVKGRITISRDNAKNTVYLQMNSLKPEDTAVYYCAVDLYWSYFNGALGYRYYYWGQGTQVTVSS”, the “polyreactivity (PSR sort gate)” value is “high polyreactivity”.

With “QVQLVESGGGLVQAGGSLRLSCAASGSTFPANAMGWYRQAPGKERELVATISWSGGRTYYADSVKGRFTISRDNAKNTVYLQMNSLKPEDTAVYYCAKGYYWLSTYGDSRYGYWGQGTQVTVSS”, the “polyreactivity (PSR sort gate)” value is reported as “high polyreactivity”.

As to “QVQLVESGGGLVQAGGSLRLSCAASGSTFPAYAMGWYRQAPGKERELVAGISSGGRTYYADSVKGRFTISRDNAKNTVYLQMNSLKPEDTAVYYCAAFRFYWQRPDRYYYWGQGTQVTVSS”, the “polyreactivity (PSR sort gate)” value is given as “high polyreactivity”.

On to “QVQLVESGGGLVQAGGSLRLSCAASGSTFPAYAMGWYRQAPGKERELVATITYTGGSTYYADSVKGRFTISRDNAKNTVYLQMNSLKPEDTAVYYCAADRWDQEDEFDYWGQGTQVTVSS”, for which the “polyreactivity (PSR sort gate)” value is “low polyreactivity”.
